Reference: PMC7780100

Test: 55Fe efflux after 10 µM hepcidin pretreatment, oocytes
Settings: glycan lost; control: wild-type mouse Fpn

B1: mouse ferroportin (Fpn): N437D (protein)
parent chain: MTKARDQTHQEGCCGSLANYLTSAKFLLYLGHSLSTWGDRMWHFAVSVFLVELYGNSLLLTAVYGLVVAGSVLVLGAIIGDWVDKNARLKVAQTSLVVQNVSVILCGIILMMVFLHKNELLTMYHGWVLTVCYILIITIANIANLASTATAITIQRDWIVVVAGENRSRLADMNATIRRIDQLTNILAPMAVGQIMTFGSPVIGCGFISGWNLVSMCVEYFLLWKVYQKTPALAVKAALKVEESELKQLTSPKDTEPKPLEGTHLMGEKDSNIRELECEQEPTCASQMAEPFRTFRDGWVSYYNQPVFLAGMGLAFLYMTVLGFDCITTGYAYTQGLSGSILSILMGASAITGIMGTVAFTWLRRKCGLVRTGLFSGLAQLSCLILCVISVFMPGSPLDLSVSPFEDIRSRFVNVEPVSPTTKIPETVFTTEMHMSNMSNVHEMSTKPIPIVSVSLLFAGVIAARIGLWSFDLTVTQLLQENVIESERGIINGVQNSMNYLLDLLHFIMVILAPNPEAFGLLVLISVSFVAMGHLMYFRFAQKTLGNQIFVCGPDEKEVTDENQPNTSVV
- other: hepcidin inhibition of transport: no change
